Laboratory results from patent US8192946B2, “Assays for detecting pregnancy-associated glycoproteins” (The Curators of The University of Missouri, priority 2008, dated 2012).
Square brackets hold non-standard residues; d marks the D form. Peptide text beside a SMILES is read from it. * marks the point of attachment. Sta = CC(C)C[C@H](N)[C@@H](O)CC(=O)O; Isovaleryl = CC(C)CC(=O)*

Legend:
Type in all cases: biochemical
[1] = system: native bovine PAG (preparation 7-10); assay: inhibition of native PAG peptidase activity by pepstatin A; settings: parallel samples in pH 3.5, 4 and 4.5 buffers; FIG. 1
Description: FIG. 1. pH profile of the activity of native bovine PAG (preparation 7-10) against a fluorescent peptidase substrate. The PAG was isolated by pepstatin affinity chromatography and further purified by anion exchange chromatography. Identical amounts of the 7-10 preparation were mixed with a fluorescent peptidase substrate in the presence of buffers adjusted to different pH levels. The extent of fluorescent product release is indicated on the y-axis and the pH conditions of each reaction are indicated on the x-axis. Parallel samples in the pH 3.5, 4 and 4.5 buffers were treated with pepstatin A, an inhibitor of aspartic peptidases, to determine if any observed activity was from aspartic peptidases.
In each of the examples shown in FIGS. 1-3, native bovine PAGs were bound to pepstatin-agarose matrix at pH 7 or 7.5, washed and eluted by increasing osmolarity (up to 1 M NaCl), including detergent (1% Triton X-100) and increasing the pH of the elution buffer. Different PAGs bind with differing affinities to the aspartic peptidase inhibitor, pepstatin A, and it is possible to isolate different members of the family by systematically altering binding and elution conditions (e.g. Green et al., 2005; Wooding et al., 2005). The differences in activity and pH optima for each of these preparations are illustrated in FIGS. 1-3. […]

[2] = system: fluorescent cathepsin D/E substrate; assay: proteolytic activity of purified recombinant PAGs as a function of pH; settings: 20 μM substrate; for pH of maximal activity: buffers of varying pH with 100 mM NaCl, FIGS. 5A, 5B
Description: FIGS. 5A and 5B. The activity of purified recombinant bovine PAG-2 and -12 (FIG. 5A), and porcine PAG-2 (FIG. 5B), against a fluorescent cathepsin D substrate as a function of pH. In FIG. 5A, triangles represent boPAG-2 activity, which is at a maximum at pH 4, while squares represent boPAG-12 activity. In both panels (A and B), each activity point is normalized by the maximum activity (relative fluorescence units) of each peptidase at its optimal pH. The percent activity is shown on the Y-axis and the pH of respective buffers on the X-axis. The error bars represent standard deviation in results obtained from duplicate reads from two separate experiments.
Recombinant boPAG-2 and -12 and recombinant porcine PAG-2 (poPAG-2) were tested for proteolytic activity by incubation with 20 μM fluorescent cathepsin D/E substrate (Peptides International, as above) in buffers of varying pH containing 100 mM NaCl. Raw fluorescence data was transformed to % relative activity, with the highest value set at 100%. Maximal activity for boPAG-2 was at pH 4, while maximal activity for boPAG-12 and poPAG-2 was at pH 3.5 (FIGS. 5A and 5B).

[3] = system: cathepsin D/E FRET substrate; assay: anti-FLAG immuno-trap protease assay of recombinant candidate bovine PAGs at pH 3-7
Protocol: FIGS. 6A and 6B. Relative protease activity, as measured by fluorescence, from an immuno-trap protease assay of several recombinant PAGs isolated with an anti-FLAG monoclonal antibody. The reactions were performed under several pH conditions simultaneously (pH 2.5 to 7.0). Identical concentrations of each recombinant PAG lysate were added to the wells.
Table 5 and FIGS. 6A and 6B show results of protease activity (fluorescence) from immuno-trap assays of several additional recombinant bovine PAGs that were expressed as fusion proteins with a FLAG epitope tag. The PAGs were immobilized in the wells of an ELISA plate by using anti-FLAG in an immuno-protease assay format (as described above) and were analyzed for their proteolytic activity against the cathepsin D/E FRET substrate at pH increments ranging from 3-7. […] This protein was used as a negative control in the assay to establish the baseline for background fluorescence.

## CC(C)CC(=O)N[C@H](C(=O)N[C@H](C(=O)N[C@@H](CC(C)C)[C@@H](O)CC(=O)N[C@@H](C)C(=O)N[C@@H](CC(C)C)[C@@H](O)CC(=O)O)C(C)C)C(C)C [pepstatin A] (Isovaleryl-VV[Sta]A[Sta]-OH)
[1]
  inhibition of peptidase activity: inhibited

B1: boPAG-2: recombinant bovine PAG 2 expressed in a baculovirus expression system as FLAG-tagged fusion protein (protein)
chain: DYKDDDDKIVILPLKKMKTLRETLREKNLLNNFLEEQAYRLSKNDSKITIHPLRNYLDTAYVGNITIGTPPQEFRVVFDTGSANLWVPCITCTSPACYTHKTFNPQNSSSFREVGSPITIFYGSGIIQGFLGSDTVRIGNLVSPEQSFGLSLEEYGFDSLPFDGILGLAFPAMGIEDTIPIFDNLWSHGAFSEPVFAFYLNTNKPEGSVVMFGGVDHRYYKGELNWIPVSQTSHWQISMNNISMNGTVTACSCGCEALLDTGTSMIYGPTKLVTNIHKLMNARLENSEYVVSCDAVKTLPPVIFNINGIDYPLRPQAYIIKIQNSCRSVFQGGTENSSLNTWILGDIFLRQYFSVFDRKNRRIGLAPAV
[2]
  pH of maximal activity: 4

B2: tsh (control): recombinant equine-TSH-beta expressed and purified in the same manner as the PAGs, negative control (protein)
chain: FCIPTEYMMHVERKECAYCLTINTTICAGYCMTRDINGKLFLPKYALSQDVCTYRDFMYKTVEIPGCPDHVTPYFSYPVAVSCKCGKCNTDYSDCIHEAIKANYCTKPQKSYVVEFSI
[3]; anti-FLAG immuno-trap, pH 3-7, compared with TSH-beta control
  proteolytic activity: does not have proteolytic activity
[3]; pH 3.0, immobilized with anti-FLAG
  Relative fluorescent product release, pH 3.0: 38349
[3]; pH 4.0, immobilized with anti-FLAG
  Relative fluorescent product release, pH 4.0: 33908
[3]; pH 5.0, immobilized with anti-FLAG
  Relative fluorescent product release, pH 5.0: 34996.5
[3]; pH 6.0, immobilized with anti-FLAG
  Relative fluorescent product release, pH 6.0: 28222.5
[3]; pH 7.0, immobilized with anti-FLAG
  Relative fluorescent product release, pH 7.0: 26590.5

B3: poPAG-2: recombinant porcine PAG-2, FLAG-tagged (protein)
chain: DYKDDDDKLVMIPLTKVKSVRESLREKGLLKNFLKEHPYNMIQNLLSKNSSHVQKFSYQPLRNYLDMVYVGNISIGTPPQQFSVVFDTGSSDLWVPSIYCKSKACVTHRSFNPSHSSTFHDRGKSIKLEYGSGKMSGFLGQDTVRIGQLTSTGQAFGLSKEETGKAFEHAIFDGILGLAYPSIAIKGTTTVIDNLKKQDQISEPVFAFYLSSDKEEGSVVMFGGVDKKYYKGDLKWVPLTQTSYWQIALDRITCRGRVIGCPRGCQAIVDTGTSMLHGPSKAVAKIHSLIKHFEKEYVVPCNARKALPDIVFTINNVDYPVPAQAYIRKYVVPCNARKALPDIVFTINNVDYPVPAQAYIRKNANNNRCYSTFEDIMDTLNQREIWILGDVFLRLYFTVYDEGQNRIGLAQAT
[2]
  pH of maximal activity: 3.5
[2]; pH 2.5, 100 mM NaCl
  activity at pH 2.5: showed activity
